Reference: US9096835B2, “DNA polymerase” (Medical Research Council, priority 2003, dated 2015)
“Also recorded” adds a separate entry of the source.

Legend:
PCR with Biotin-16-dUTP = assay type: biochemical; conditions: 50 cycle PCR, complete replacement
Procedure: A PCR assay was used to screen and rank clones. Briefly, clones were normalized for activity in PCR with matched primers 3, 4 and activity with mismatched primers 1 and 2 (1 μM each) determined at minimal cycle number (15-25 cycles). Extension capability for different mismatches was determined by the same assay using mismatch primers 2 (C•C mismatch), 5 (A•A mismatch), 6 (G•G mismatch), 7 (G•A mismatch) with matched primer 3 or primer 1 (A•G mismatch) with matched primer 4. Incorporation of unnatural substrates in 50 cycle PCR was carried out using standard conditions and 50 μM […] dNTPs (Promega) or 50 μM FITC-12-dATP (Perkin-Elmer), Rhodamine-5-dUTP (Perkin-Elmer) or Biotin-16-dUTP (Roche) with equivalent amounts of the other 3 dNTPs (all 50 μM). Long PCR was carried out using a two-step cycling protocol as described (22) 94° C. for 2 minutes, followed by 20 cycles of (94° C. 15 sec, 68° C. 30 min) using 5 ng of phage λ DNA (New England Biolabs) template and either primers 9, 10, 11 with primer 12 or primer 13 with primers 10, 14.

[1] = system: template containing a single 5-nitroindole; experiment: 5NI replication assay; assay type: biochemical; conditions: primer extension, 60° C.
Procedure: Primer 26 was ^32P-labeled and annealed to template primer 27 (containing a single 5-nitroindole) in 1× Taq buffer, 0.1 or 0.5 U of the polymerase was added and reactions incubated at 60° C. for 15 mins, after which 40 μM of each dNTP were added and incubation at 60° C. continued for various times.

undamaged template = experiment: Translesion replication assay, control; assay type: biochemical; conditions: gel-extension assay, 60° C.
Procedure: (§1) Template primers 22 (undamaged) or 23 (containing a synthetic abasic site) were synthesized by Lofstrand Laboratories (Gaithersburg, Md.). Template primer 24 (containing a single cis-syn thymine dimer), was synthesized as described (34). Primer 25 was ^32P-labeled and annealed to one of the three templates 22, 23, 24 (at a primer template ratio of molar 1:1.5) and extended in 40 mM Tris.HCl at pH 8.0, 5 mM MgCl2, 100 μM of each dNTP, 10 mM DTT, 250 μg/ml BSA, 2.5% glycerol, 10 nM primer-template DNA and 0.1 Unit of polymerase at 60° C. for various times.

[2] = target: matched and mismatched primer-template duplex; experiment: Template affinity equilibrium binding assay; conditions: not shown
Procedure: An equilibrium binding assay (12) was used to determine relative affinity of polymerases for the mismatched primer-templates used in the kinetics assays. Polymerases were preincubated at 60° C. in 1× Taq buffer with 50 nM ^32P-labeled matched primer-template and 50 nM unlabeled mismatched competitor primer-templates. Reactions were initiated by simultaneous addition of dCTP (200 μM) and trap DNA (XbaI/SalI-restricted sheared salmon sperm DNA, 4.5 mg/ml).

[3] = system: template containing an abasic site; experiment: Translesion replication assay (primer extension), abasic site; assay type: biochemical; conditions: gel-extension assay, 60° C.
Procedure: as §1
Primer extension assays were essentially as described in (Ghadessy et al., 2004). Briefly, undamaged oligonucleotides and a 51mer containing a synthetic abasic site were synthesized by Lofstrand Laboratories (Gaithersburg, Md.) using standard techniques and were gel purified prior to use. A 20mer primer (LES—20 P) with the sequence 5′-[…]-3′ (SEQ ID NO: 99) was 5′-labeled with [^32P]ATP (5000 Ci/mmole; 1 Ci=37 GBq) (Pharmacia) using T4 polynucleotide kinase (Invitrogen, Carlsbad Calif.). Radiolabeled primer-template DNAs were prepared by annealing the 5′[^32P] labeled 20mer primer to one of the two following 51mer templates (at a primer template ratio of molar 1:1.5). 1) undamaged DNA (UNDT51T); 5′-AGCTACCATGCCTGCACGAATTCGGCATCCGTCGCGACCACGGTCGCAGCG-3′ (SEQ ID NO: 100); 2) an oligo (LABA51T) containing a synthetic abasic site (indicated as an X in bold font); 5′-AGCTACCATGCCTGCACGACA XCG GCATCCGTCGCGACCACGGTCGCAGCG-3′ (SEQ ID NO: 101). Standard replication reactions of 10 contained 40 mM Tris.HCl at pH 8.0, 5 mM MgCl2, 100 μM of each ultrapure dNTP (Amersham Pharmacia Biotech, NJ), 10 mM DTT, 250 μg/ml BSA, 2.5% glycerol, 10 nM 5′[32P] primer-template DNA and 0.1 Unit of polymerase. After incubation at 60° C. for various times reactions were terminated by the addition of 10 μl of 95% formamide/10 mM EDTA and the samples heated to 100° C. for 5 min. Reaction mixtures (5 μl) were subjected to 20% polyacrylamide/7 M Urea gel electrophoresis and replication products visualized by PhosphorImager analysis.

[4] = system: primer-template DNA substrates; experiment: Processivity primer extension assay with and without trap DNA; assay type: biochemical; conditions: for processivity compared with wtTaq: even at the lowest enzyme concentrations; for bound polymerase that extended primers to the end of the template: in the presence of trap DNA (single DNA binding event)
Procedure: Processivity was measured using a primer extension assay the presence and absence of trap DNA. Termination probabilities were calculated according to the method of Kokoska et al.
Oligonucleotide primer 32 (5′-GCGGTGTAGAGACGAGTGCGGAG-3′) (SEQ ID NO: 117) was ^32P-labelled and annealed to the template 33 (5′-CTCTCACAAGCAGCCAGGCAAGCTCCGCACTCGTCTCTACACCGCTCCGC-3′ (SEQ ID NO: 118)) (at a primer/template ratio of molar 1/1.5). wtTaq (0.0025 nM; 0.025 nM; 0.25 nM), M1(0.05 nM; 0.5 nM; 5 nM), and M4 (0.05 nM; 0.5 nM; 5 nM) were preincubated with the primer-template DNA substrates (10 nM) in 10 mM Tris-HCl at pH 9.0, 5 mM MgCl2, 50 mM KCl, 0.1% Triton X 100 at 25° C. for 15 min. Reactions were initiated by addition of 100 μM dNTPs with or without trap DNA (1000-fold excess of unlabeled primer-templates). Reactions were performed at 60° C. for 2 min. […] Thus, in the presence of trap DNA, all DNA synthesis resulted from a single DNA binding event. Gel band intensities were calculated using a Phosphoimager and ImageQuant (both Molecular Dynamics) software. Percentage of polymerase molecules, which extended primers to the end of the template was calculated using the formula: In×100%/(I1+I2+ . . . +In), where In is the intensity of the band at position 22 or 23; I1, I2 . . . is the intensity of the band at position 1, 2 . . . . Termination probabilities (τ) were calculated according to the method of Kokoska et al^1, whereby t at a particular template position was calculated as the intensity of the band at this position divided by the sum of the intensity of this band and the band intensities of all longer products.

Molecule	size of amplification products fully labelled with Biotin-16-dUTP (PCR with Biotin-16-dUTP) [kb]	bypass of template strand 5NI [1]	primer extension on undamaged template (undamaged template)	dissociation constants for matched and mismatched primer-template duplex [2]	abasic site bypass in primer extension [3]	processivity compared with wtTaq [4]	bound polymerase that extended primers to the end of the template [4] [%]	termination probability ([4]; positions 6 and 7)	termination probability ([4]; positions 2 through 5)
M1: Taq mutant G84A, D144G, K314R, E520G, F598L, A608V, E742G; SEQ ID NO: 1 (protein, Mutant Thermus aquaticus DNA polymerase) MRGMLPLFEPKGRVLLVDGHHLAYRTFHALKGLTTSRGEPVQAVYGFAKSLLKALKEDGDAVIVVFDAKAPSFRHEAYGGYKAARAPTPEDFPRQLALIKELVDLLGLARLEVPGYEADDVLASLAKKAEKEGYEVRILTADKGLYQLLSDRIHVLHPEGYLITPAWLWEKYGLRPDQWADYRALTGDESDNLPGVKGIGEKTARKLLEEWGSLEALLKNLDRLKPAIREKILAHMDDLKLSWDLAKVRTDLPLEVDFAKRREPDRERLRAFLERLEFGSLLHEFGLLESPKALEEAPWPPPEGAFVGFVLSRREPMWADLLALAAAAGGRVHRAPEPYKALRDLKEARGLLAKDLSVLALREGLGLPPGDDPMLLAYLLDPSNTTPEGVARRYGGEWTEEAGERAALSERLFANLWGRLEGEERLLWLYREVERPLSAVLAHMEATGVRLDVAYLRALSLEVAEEIARLEAEVFRLAGHPFNLNSRDQLERVLFDELGLPAIGKTEKTGKRSTSAAVLGALREAHPIVEKILQYRELTKLKSTYIDPLPDLIHPRTGRLHTRFNQTATATGRLSSSDPNLQNIPVRTPLGQRIRRAFIAEEGWLLVVLDYSQIELRVLAHLSGDENLIRVFQEGRDIHTETASWMFGVPREAVDPLMRRAAKTINFGVLYGMSAHRLSQELAIPYEEAQAFIERYFQSFPKVRAWIEKTLEEGRRRGYVETLFGRRRYVPDLEARVKSVRGAAERMAFNMPVQGTAADLMKLAMVKLFPRLEEMGARMLLQVHDELVLEAPKERAEAVARLAKEVMEGVYPLAVPLEVEVGIGEDWLSAKE	2.7	efficiently bypass template strand 5NI	efficiently and rapidly extended primers to the end of the template	indistinguishable	able to extend past the lesion and to the end of the template; also recorded: capable of both insertion opposite the abasic site and lesion bypass	processivity equal (or higher) than wtTaq	28	1%	–
M4: Taq mutant D58G, R74P, A109T, L245R, R343G, G370D, E520G, N583S, E694K, A743P; SEQ ID NO 2 (protein, Mutant Thermus aquaticus DNA polymerase) MRGMLPLYEPKGRVLLVDGHHLAYRTFHALKGLTTSRGEPVQAVYGFAKSLLKALKEGGDAVIVVFDAKAPSFPHEAYGGYKAGRAPTPEDFPRQLALIKELVDLLGLTRLEVPGYEADDVLASLAKKAEKEGYEVRILTADKDLYQLLSDRIHVLHPEGYLITPAWLWEKYGLRPDQWADYRALTGDESDNLPGVKGIGEKTARKLLEEWGSLEALLKNLDRLKPAIREKILAHMDDLKLSWDRAKVRTDLPLEVDFAKRREPDRERLRAFLERLEFGSLLHEFGLLESPKALEEAPWPPPEGAFVGFVLSRKEPMWADLLALAAARGGRVHRAPEPYKALGDLKEARGLLAKDLSVLALREGLGLPPDDDPMLLAYLLDPSNTTPEGVARRYGGEWTEEAGERAALSERLFANLWGRLEGEERLLWLYREVERPLSAVLAHMEATGVRLDVAYLRALSLEVAEEIARLEAEVFRLAGHPFNLNSRDQLERVLFDELGLPAIGKTEKTGKRSTSAAVLGALREAHPIVEKILQYRELTKLKSTYIDPLPDLIHPRTGRLHTRFNQTATATGRLSSSDPNLQSIPVRTPLGQRIRRAFIAEEGWLLVALDYSQIELRVLAHLSGDENLIRVFQEGRDIHTETASWMFGVPREAVDPLMRRAAKTINFGVLYGMSAHRLSQELAIPYEEAQAFIKRYFQSFPKVRAWIEKTLEEGRRRGYVETLFGRRRYVPDLEARVKSVREPAERMAFNMPVQGTAADLMKLAMVKLFPRLEEMGARMLLQVHDELVLEAPKERAEAVARLAKEVMEGVYPLAVPLEVEVGIGEDWLSAKE	–	efficiently bypass template strand 5NI	efficiently and rapidly extended primers to the end of the template	indistinguishable	able to extend past the lesion and to the end of the template	processivity equal (or higher) than wtTaq	15	2-4%	13-35%
